Data set [1] can be described thus: LC-MS assay of GH3 conjugation of IAA with Asp or Glu. The conditions noted are these: for kcat (hrs−1) IAA-Asp: conjugation of IAA with Asp by recombinant GH3 protein, IAA-Asp product by LC-MS; for kcat (hrs−1) IAA-Glu: conjugation of IAA with Glu by recombinant GH3 protein, IAA-Glu product by LC-MS. The format is biochemical. In short, it runs like this: (§1)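 Rxn: 20 mM Tris-HCl pH 8.0, 5 mM MgCl2, 1 mM DTT, 5 mM ATP, 5 mM auxin, 5 mM Asp/Glu, 44–164 μg/mL purified His-GH3; 30° C., 3 h. MeOH quench, supernatant diluted 20×, LC-MS vs conjugate standards.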

Data set [2] is described as follows: LC-MS assay of GH3 conjugation of 2,4-D with Asp or Glu. The format is biochemical. Particulars: 5 mM 2,4-D substrate; for kcat (hrs−1) 2,4-D-Asp: conjugation of 2,4-D with Asp by recombinant GH3 protein, 2,4-D-Asp product by LC-MS; for kcat (hrs−1) 2,4-D-Glu: conjugation of 2,4-D with Glu by recombinant GH3 protein, 2,4-D-Glu product by LC-MS. In short, it runs like this:
as §1

B1: AIGH3-12 (protein, listed as Arabidopsis lyrata)
chain: MKPISDINESFEKQLKYLTSDVKQIQDNLLEEIITPNTKTEYLQRFLIGRFDKDLFKKNVPIVTYEDIKPYLDRVVNGESSDVISARPITGFLLSSGTSGGAQKMMPWNNKYLDNLTFIYDLRMQVITKHVKGVEEGKGMMFLFTKQESMTPSGLPARVATSSYFKSDYFKHRPSNWYYSYTSPDEVILCPNNTQSLYCHLLCGLVQRDEVVRTGSIFASVMVRAIEVLKNSWEELCSNIRSGHLSNWVTDLGCQSSVSLVLGGPRPELADTIEEICNQKSWKGIVKRLWPNTKYIETVVTGSMGQYVPMLNYYCNDLPLVSTTYGSSETTFGINLDPLCKPEDVSYTFMPNMSYFEFIPMDGDNNDVVDLEDVKLGCTYEPVVTNFAGLYRMRVGDIVLVTGFYNNAPQFKFVRRENVVLSIDSDKTNEEDLFKAVSQAKLVLESSGLDLKDFTSYADTSTFPGHYVVYLEVDTKEGEEKKTAQFELDEEALSMCCLVMEESLDNVYKRCRFKDGSIGPLEIRVVRQGTFISLMDFFISQGASTGQYKTPRCIKSGKALQVLETCVVAKFFSS
In the case of B1, in data set [1], the “kcat (hrs−1) IAA-Asp” value was determined as 0.000 h⁻¹ and the “kcat (hrs−1) IAA-Glu” value was 12.925 h⁻¹. Further, in data set [2], the “kcat (hrs−1) 2,4-D-Asp” value turned out to be 0.006 h⁻¹ and the “kcat (hrs−1) 2,4-D-Glu” value was 0.057 h⁻¹.

B2: OsGH3-1: GH3 protein, accession Q8LQM5 (protein, listed as Oryza sativa)
chain: MPEAPTAKTAPAYGYAPGAHAEALEFIEHVTANAGQVQRRVLGEILAQNAPAEYLRRYGIPGSPDVVDAFRRLVPLVTYEGLQPDILRIANGDTSPIFSGKPISEFLTSSGTSGGERKLMPTIADEMNRRSLLYSLLMPVMSQSVSGLDKGKAMYLLFVKAESRTPGGLAARPVLTSYYRSRQFLDRPRDPYTSYTSPDEAILCVDSYQSMYAQLLCGLVHRADVLRVGAVFASGFLRAIHFLEKHWARLCHDIRTGELDPEITDRVVRDAVGRVLRADPALADAIEDECARASWEGIIRRLWPRTKYIDVIVTGTMSQYIPTLEFYGGGLPLTCTMYASSECYFGLNLNPMCKPSDVAYTLIPTMCYYEFLPVNCNNATAEASHRDLVDLVDVKLGHEYELVVTTYSGLYRYRVGDVLRVAGFKNKAPMFSFVRRQNVALSVDSDKTDETELHAAVSGAVQHLAPFGASLVEYTSYADAATIPGHYVLFWELRAGSTAVPASVFEECCLSVEEALNSVYRQGRACDRSIGPLEIRVVAEGTFDKLMDYAISRGASINQYKAPRCVRPGPVVELLDARVQGKYFSPKCPKWSPGNKQWNKSKDLVGKGDA
For the molecule B2, in data set [1], the “kcat (hrs−1) IAA-Asp” value came out at 633.605 h⁻¹ and the “kcat (hrs−1) IAA-Glu” value came to 33.412 h⁻¹. Further, in data set [2], the “kcat (hrs−1) 2,4-D-Asp” value is 0.937 h⁻¹ and the “kcat (hrs−1) 2,4-D-Glu” value stood at 0.207 h⁻¹.

B3: VvGH3-6: GH3 protein, accession XP_002268278 (protein, listed as Vitis vinifera)
chain: MLLSCDPHDNEAGLMLLEDLTTNANQVQLEVLEEILTQNANTEYLRGYLDGHSDKGLFKKKVPIVNYEDIKPHIERIANGEPSRIISAQPITELLTSSGTSGGQPKLMPSTAEDLDRKTFFYNLLIPVMNKYVDGLDQGKGMYLLFIKPEISTPSGLMARPVLTSYYKSSNFRNRPFNPFNVYTSPDETILCLDSKQSMYCQLLCGLVQRDEVLRVGAVFASAFLRAIKFLEDHWRELCSNIRTGCVSDWITDPSCRNAVSSFLSKPQPDLADFIEFECNGESWEGIIKRLWPRTKYIEVIVTGSMAQYIPTLEFYSGGLPLVSTMYASSECYYGINLKPLSKPSDVSYTLLPNMAYFEFLPVQKNNGEVTQQVQCNGGCIKKEGERVEIEVVGLVDVKVGHYYELVVTTFTGLYRYRTGDILMVTGFYNNAPQFRFVQRRNVVLSIDTDKTNEEDLLKAVTQAKLLLEPYGFLLTEYTSYADTSSIPGHYVLFWELKTRGNNDLSEPDHTIMEQCCSTVEESLDSVYRRCRRRDNSIGPLEIRIVKPGTFDALMDFCVSQGSSVNQYKTPRCIKSKEAIKILDSRVVGKVFSKKVPFWEPFKMETK
B3: in data set [1], the “kcat (hrs−1) IAA-Asp” value was found to be 111.443 h⁻¹ and the “kcat (hrs−1) IAA-Glu” value is 505.272 h⁻¹. Also, in data set [2], the “kcat (hrs−1) 2,4-D-Asp” value was 0.385 h⁻¹ and the “kcat (hrs−1) 2,4-D-Glu” value was 1.204 h⁻¹.

B4: OsGH3-2: GH3 protein, accession BAF06259 (protein, listed as Oryza sativa)
chain: MAPAAVAAAEAGSKAAAVAGKAVAACERDAEKLEFIEEMTRGFDAVQERVLAAILARNNGAEYLRRHGMEGRTDREAFKARVPVVTYEDLRPEIERIANGDRSNIISSHPITEFLTSSGTSAGERKLMPTIEDELDRRQMLYSLLMPVMNLYVPGLDKGKGLYFLFIKSETKTPGGLPARPVLTSYYKSDHFKHRPFDPYNVYTSPTAAILCTDAFQSMYAQMLCGLVARAEVLRVGAVFASGLLRAIRFLQLHWRELAHDIRTGTLSAKVTEPSIRDAVAEVLAAPDAELAAFVEAECGKDKWEGIITRMWPNTKYLDVIVTGAMAQYIPTLKFYSGGLPMACTMYASSECYFGLNLRPMCDPSEVSYTIMPNMGYFELMPHDPDAPPLPRDAPPPRLVDLADAEVGREYELVITTYAGLCRYRVGDILQVTGFHNAAPQFRFVRRKNVLLSIDSDKTDEAELQAAVERASALLSPYGASIVEYTSQADATTIPGHYVVYWELMVREGGAWPPPAEEEGRGVFERCCLEMEEALNAVYRQGRNGEAIGPLEIRVVRAGTFEEVMDYAISRGASINQYKAPRCVSFGPIIELLNSRVISKHFSPACPKYSPHKK
B4: in data set [1], the “kcat (hrs−1) IAA-Asp” value is 664.242 h⁻¹ and the “kcat (hrs−1) IAA-Glu” value was 42.295 h⁻¹. In data set [2], the “kcat (hrs−1) 2,4-D-Asp” value is 1.548 h⁻¹ and the “kcat (hrs−1) 2,4-D-Glu” value was 0.401 h⁻¹.

B5: AIGH3-7 (protein, listed as Arabidopsis lyrata)
chain: VLEDLTSNVTQLQDNEILTLNANTNYLQSFFRGRFDKEIFKKNVPVVTYDDPSNVISAQPITGFVLSSGTSGGAQKMMPWNEKYLDSCMIFGCINVKNVEKGKAMMFYFTKLESITPSGLPARVASSSYLKSNYFKNRPSNWYYTYTSPDELTLCPDNKQNLYCHLLCGLVQRNEVTRMGSIFASVMKELWSNIRSGQLSEWITDIVANTIEKICNQKCWKGIVTRLWPKAKYIETIVTGSMVQYVPTLNYYSNDMLPLISTIYASSETQFGLNLNPMCKPEDVSYTFMPNVSYFEFIPVDGDKNNVVDLADVKLGCSYEAVVTNFRIRVGDILVVTGFHNKAPQFRFIRRDNVVLSIDLDKTNEDDLFKAVNRGKLTLDSSDLMLAMLISPLSRDKNKDKKSKKHIELKQETFSECCLLMEDSLDEVYKNCRFKEEWTFDSLMDFFISQGASIGQYKTPRCIKSAKALEVIEKMW
Regarding B5, in data set [1], the “kcat (hrs−1) IAA-Asp” value was found to be 0.000 h⁻¹ and the “kcat (hrs−1) IAA-Glu” value turned out to be 0.000 h⁻¹. In data set [2], the “kcat (hrs−1) 2,4-D-Asp” value is 0.000 h⁻¹ and the “kcat (hrs−1) 2,4-D-Glu” value is 0.000 h⁻¹.

B6: AtGH3-15: GH3 protein, accession CAB87144 (protein, listed as Arabidopsis thaliana)
chain: MLPKFDPTNQKACLSLLEDLTTNVKQIQDSVLEAILSRNAQTEYLRGFLNGQVDKQNFKKNVPVVTYEDIRSYIDRIANGEPSDLICDRPISVLLTSSGTSGGVPKLIPLTTEDLEQRISFSSLYAPLLYKHIDGLSEGKSLIFYFVTRESKTANGDSLQVSPHAITTCADTTQSMYCQLLCGLLERDNVARLGAPFASSFLKVIKFLEDHWPELCSNIRTGRLSDWITDATCTSGIGKFLTAPNPELASLIEQECSKTSWEAILKRLWPKAKCIESIITGTMAQYIPLLEFYSGGLPLTSSFYGSSECFMGVNFNPLCKPSDVSYTIIPCMGYFEFLEVEKDHQEAGHDPTEKPVVVDLVDVKIGHDYEPVVTTFSGLYRYRVGDVLRATGFYNNAPHFCFVGRQKVVLSIDMDKTYEDDLLKAVTNAKLLLEPHDLMLMDFTSRVDSSSFPGHYVIYWELGSKVKDAKFEPNRDVMEECCFTVEESLDAVYRKGRKNDKNIGPLEIKVVKPGAFDELMNFFLSRGSSVSQYKTPRSVTNEEALKILEANVISEFLSRKIPSWELHELHSGR
Take B6: in data set [1], the “kcat (hrs−1) IAA-Asp” value was found to be 0.000 h⁻¹ and the “kcat (hrs−1) IAA-Glu” value was found to be 0.000 h⁻¹. Also, in data set [2], the “kcat (hrs−1) 2,4-D-Asp” value turned out to be 0.000 h⁻¹ and the “kcat (hrs−1) 2,4-D-Glu” value stood at 0.000 h⁻¹.

B7: OsGH3-6: GH3 protein, accession Q60EY1 (protein, listed as Oryza sativa)
chain: MAATAWGIRSSGIRGASPVMSACVSPAEVILGADHQQQMYCHLLCGLRRWDAVDCIRAPYAAALARALRLLQSKWRQLCDDLECGTVCADVVTDAAMRGAVQDGVLAGPCPELAGRVRRICERDDWRGVLRQLWPDARYISCVTTGTMEQYFPAIKHFAGEALPVLGTDYLASECAIGINLERTSPPEETTYVLLPRAAYFEFIPFDMDAAGRGAAAAEPVDIAGVEAGKTYELVATTFRGLYRYKVGDVVKIAGFHHSSPRLQFVTRAPPPQEHGEVLTERDVMAAMDTFQLMLKDGGEVIEFAAFIIDGDGGQRRRRCATIAVEVSNGSKLLDHERSAAFLRRCTAPLEGCLGGAYRLSRATGDVAPLEVAVVRPGTFDRLAEAAIRGGAPANQYKPPRSSGTGTSSMCCNPPWCAAAAQSLNQLLTSICLIVSLNQRQFLDRESNSGTDKVFISDSILNFQHWGGFSLRFDLQEESLTLYKDHPS
Take B7: in data set [1], the “kcat (hrs−1) IAA-Asp” value worked out at 0.000 h⁻¹ and the “kcat (hrs−1) IAA-Glu” value stood at 0.000 h⁻¹. Besides, in data set [2], the “kcat (hrs−1) 2,4-D-Asp” value is 0.000 h⁻¹ and the “kcat (hrs−1) 2,4-D-Glu” value is 0.000 h⁻¹.

The values above are taken from US20150351390A1, “COMPOSITIONS AND METHODS FOR AUXIN-ANALOG CONJUGATION” (PIONEER HI-BRED INTERNATIONAL, INC., priority 2012, published 2015).
